Experimental data from the nanobody polyreactivity screen of Harvey et al. (2022).

Test: yeast display, Sf9 membrane polyspecificity reagent, FACS + sequencing; frameworks hold sequencing errors
Outline: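 Using colony PCR, genes from sorted yeast display clones were amplified, then sequenced on MiSeq at 2 × 250 and filtered by CDR length. The clones had been stained with 10% biotinylated, detergent-solubilized Sf9 membrane reagent for 1 hour at 4 °C and sorted by FACS into low and high (top ~1%) gates on anti-HA and streptavidin fluorescence. Polyreactivity labels come from the gate of origin.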

Row | Sequence | polyreactivity (PSR sort gate)
1 | QVQLVESGGGLVQAGGSLRLSCAASGSTFYLNAMGWYRQAPGKERELVAAISRRGGSTYYADSVKGRFTISRDNAKNTVYLEMNSLKPDDTAVYYCNRARVYGYYAPFDYWGQGTQVTVSS | high polyreactivity
2 | QVQLGESGGGLVQAGGTLRLSCAAYGFIFGIYDMGSYRQAPGKERELVAAITWDGDTTYYADSVKGRFTISRDNAKNTVYLQMNSLKPEDTAVFYCAVDDSRAYPRPYHWVEYYYWGQGTQVTVSS | low polyreactivity
3 | QVQLVESGGGLVQAGGSLRLSCAASGFTLGSNAMGWYRQAPGKERELVAAISWDGGRTYYADSVKGRFTISRDNAKNTVYLQMNSLKPEDTAVYYCNRASYLRGTAGGDYWGQGTQVTVSS | high polyreactivity
4 | QDQLVESVGGLVQAGGSLRLSCAASGFTFYNYAMGWYRQAPGKERELVAAISWNGGSTYYADSVKGRFTISRDNAKNTVYLQMNSLKPEDTAVYYCNADISQRTRGYYYVWWSRMDYWGQGTQVTVSS | low polyreactivity
5 | QVQLVESGGGLVQAGGSLRLSSAASGSTFTLYAMGWYRQAPGKERELVATITGSGGSTNYADSVKGRFTISRDNAKNTVYLQMNSLKPEDTAVYYCAADYAVYSFTEFNYWGQGTQVTVSS | high polyreactivity
6 | QVQLVESGGGLVQAGGSLRVSCAASGSIFYYAMGWYRQAPGKERELVASIRSGGSTKFADSVKGRFTISRDNAKNTVYLQMNSLKPEDTAVYYCAARGVIRYTYKSTPYDYWGQGTQVTVSS | high polyreactivity
7 | QVQLVESGGGLVQAGGSLRFSCAASGSTFYGYVMGWYRQAPGKERELVAAISSSGGRTYYADSVKGRFTIARDYAKNTVYLQMNSLKPEDTAVYYCNTVQRYSTHYDYWGQGTQVTVSS | high polyreactivity
8 | QVQLVESGGGLVQAGGSLRLSCAASGFTFTYNAMGWYRQAPGKERELVARIRWSTGSTYYADSVKGRFTISRDNAKKTVYLQMNSLKPEDTAVYYCAADGYGWGGSGWQYPHGFGYWGQGTQVTVSS | low polyreactivity
9 | QVQLVETGGGLVQAGGSLRLSCAASARTFVNYAMGWYRQAPGKEREFVAAITNGGRTNYADSVKGRFTISRDNAKNTVYLQMNSLKQEDTAVYYCAARYRFGGIRRFNYWGQGTQVTVSS | high polyreactivity
10 | QDQLVESGGGLVQAGGSLRLSCAASGYIFLRNAMGWYRQAPGKERELVATISRTGRTNYADSVKGRFTISRDNAKNTVFLHMNSLKPEDTAVYYCAAASVFGRIRLWYDYWGQGTQVTVSS | high polyreactivity
11 | QVQLVESGGGLVQAGGSLRLSCAGSGRIFARNAMGWYRQAPGKARELVAGITWSGSSTYYADSVKGRFTISRDNAKNTVYLQMNRLKPEDTAVYYCAVDYYVGSLRIHHDYWGQGTQVTVSS | low polyreactivity
12 | QVQLVESGGGLVQAGGSLRLSCAASGSTLGFNAMGWYRQAPGKEREFVAGISASGSSTYYADSVKGRFTISRDNAKNTVYLQMNSLKPEDTAVYYCAARASGGPYWSRGKYWGQGTQVTVSS | high polyreactivity
13 | QVQLVESGGGLVQAGGSLRLSCAPSGRNFTYYDMGRYRQAPGKEREFVAVISDNDSSTYADSVKGRFTISPDNAKNTVYLQMNRLKPEDTAVYYCNAYRQYRSWRYDYWGQGTQVTVSS | high polyreactivity
14 | QVQLVESGGGLVQAGGSLRLSCADSGYIYPYYAMRWYRQAPGKERELVATITSRGGSTYYADSVKRRFTISRDIAKNTVYLQMNSLKPEDTAVYYCAIEYRYYRRRYDYCGQGTQVTVSS | high polyreactivity
15 | QVHLVESGGGLVQAGGSLRLSFAASGRTFLRYDMGCYIQAPGKERELVAADSVKGRFTISRDNAKNTVYLQMNSLKAEDPAVYYCAADSTEYTGDASYIGYDYWGQGTHVTVSS | high polyreactivity
16 | QVQLVESGGGLVQAGCSLRLSCAASGRTFVHYTMGWYRQAPGKERELVATISTSGGSTSYADSVKGRFTISRDNAKNTVYLQMNSLKPEDTAVYYCAARWYFPDRVKYDYWGQGTQVTVSS | low polyreactivity
17 | QVQLVDSGGGLVQAGGSLLLSCAASGSTYKFYAMGWYRQAPGKERELVASITSSSGPTYYADSVKGRFTISRDNAKNTVYLQMKSLKPEDTAVYYCAKRPIRYYHLLRGNYWGQGTQVTVSS | low polyreactivity
18 | QDQLVESGGGLVQAGGSLRLSCAASGFTISSYARGWYRQAPGKERELVAAISTRGGSTYYADSVKGRFTISRDNSKNTVYLQMNSLKPEDTAVSYCATGGRGGRRYEYWGQGTQVTVSS | low polyreactivity
19 | QVQLVESGGGLVQAGGSLRLSCAASGRTFPIYAMGWYRQAPGKERELVAAITYSGGSTYYADSVKGRFTISRDNAKNTVYLQMNSLKPEDTAVSYCAVDGTKPYWHQRYDYWGQGTLVTVSS | low polyreactivity
20 | QVPLEESGGGLVQAGGSLRLSCAASGSIFMTYSMGWYRKAPGNERELVAAISWRGGSTYYADSVKGRFTISRDNAKNTVYLQMNSMKPVDTAVYYCAADYYRYGYQGSTTEDDYWGQGTLVTVSS | low polyreactivity
21 | QVQRVESGGGIVQAGGTLRLSCAASLRIKDNVMGRYIQAHGKERELVAAITRSAGRTYYADSVKGRFTISRDNAKYTVYLQKNSLKPEDTALYYCAAHAERYGYEYWGQGTQVTVSS | low polyreactivity
22 | QVQLVESGGGLVQAGGSLRLSCAASGGTFAWYAMGWYRQAPGKERELVAAITSDGITKYADSVKGRFTISRDNAKNTVYLQMNSLKPEDTAVYYCAKDDGPSDWIGRWFDYWGQGTQVTVSS | low polyreactivity

Row | Sequence | polyreactivity (PSR sort gate)
23 | QVQLVESGGGLVQAGGSLRLSCAASGIILYYYAMGWYRQAPGKERELVAAISSGGNTYYADSVKGRFTISRDNAKNTVYLQMYSLKPEDTAVYYCAAVTVIGGEYDYWGQGTQVTVSS | low polyreactivity
24 | QVQLVESGGGLVQAGGSLRLSCAASGFTFDSNAMGWYRQAPGKERELVAAISRRGGSTYYADSVKGRFTISRDNAKNTVYLQMNSLKPEDTAVYYCNKESWRIGRYQYDSWGQGTQVTVSS | high polyreactivity
25 | QVQLVESGGGLVQAGGSLRLSCAASGLTCTRNAMGWYRQAPGKEREFVAAIRWSAGSTYYADSVKGRFTISRDNAKNTVYLQMNSLTPEDTAVSYCNAALNVSGHYPNDYWGQGTQVTVSS | low polyreactivity
26 | QDQLVESGGGLVQAGGSLRLSCAASGRIFQGYAMGWYRQAPGKERELVAAITLSGGSTYYADSVKGRFTISRDNAKNTVYLQMNSLKPEDTAVYYCNAYYPDEPSLYDYWGQGTQVTVSS | low polyreactivity
27 | QVQLVESGGGLVQAGGSLRLSCAASGRTFGRNAMGWYRQAPGERELVAVISRGGSTYYADSVKGRFTISRDNAKNTVYLQMNSLKPEDTAVYYCNADTVYTRNATYDYWGQCTQVTVSS | low polyreactivity
28 | QVQLVESGGGLVQAGGSLRLSCSASGFTFYVNAMGWYRQAPGKERELVAAITDDGDSTYYADSVKGRFTISRDNAKNTVYLQMNSLKPEDTAVYYCKTVYGPDLDGTEYDYWGQGTQVTVSS | low polyreactivity
29 | QVQLVESGGGLVQAGGSLRLSCAASGRIFYNYAMGWYRQAPGKETELVAAISGSGGSTYYADSVKGRFTISRDNAKNTVYLLMNSLKPEDTAVYYCSTSGQQYYSRNFDYWGQGTQVTVSS | low polyreactivity
30 | QDQLVESGGGLVQAGVSLRLSCAASGRTIRHNPMGWYIQAPGKERELVATINRGGNTYYADSVKGRFTISRDNAKNTVYLQMISLKPEDTAVYYCAARRSFLFDDGNYWGQVTQVTVSS | low polyreactivity
31 | QVQLEESGGGLVQAGGSLRLSCAASGRTFVRYAMGWYRQATGNERELVAAFSLRGGRTYYADSVKGRFTISRDNAKNTVYLQMNSLKPEDTAVYYCNSRYYIQREYDYWGQGNQVTVSS | high polyreactivity
32 | QVQLVESGGGLVQAGGSLRLSCAASGRIFKYYAMGGYRQAPGKERELVAAISGSGGSTFYADSVKGRFTISRDNAKNTVYLQMNSLKPEDSALYYCNADEVVWGYNYWGQVTQVTVSS | low polyreactivity
33 | QVQLVESGGGLVHAGGSLRLSCAASGSIYGANDMGWYRKATGKERELVAAITRSGTRTYYADSVKGLFTISRDNAKNTVYLQMNSLKPEDTAVYYCAAVLRLSTLTTDFGYWGQGTQVTVSS | high polyreactivity
34 | QVQLVESGGGLVQAGGSLRLSCAASGRTFYLYTMGWYRQAPGKEREFVAIISRSGASTRYADSVKGRFTISRDNAKNTVYLQMNRLKPEDTAVYYCAAYVGYPYDYWGQGTQVTVSS | high polyreactivity
35 | QVQLVESGGGLVQAGGSLRLSCAASGSISIQYVMGWYRPAPGKERELVAAIRVIGGSTSYADSVKGRFTISRDNAKNTVYLQMNSLKPEDTAVYYCAADWAWTISDGYYYGYPQYDYWGQGTQVTVSS | high polyreactivity
36 | QVQLVESGGGLVQAGGSLRLSCAASGSTLFTYAMGWYRQAPGKERELVAAITSSGSTYYADSVKGRFTISRDNAKNTVYFQMNSLKPEDTAVYYCAVPGYRYTKYYYWGQGTQVTVSS | low polyreactivity
37 | QVQLVESGGGLVQAGGSLRLSCAASGRIFSWYAMGWYRQAPGKERELVAAITVRGSTYYADSVKGRFTISRDNAKNTVYLQMNSLKPEDTAVYYCAAKSSRYAYDYWGQGTQVTVSS | low polyreactivity
38 | QVQLEESGGGLVQAGVSLRLSCAASGFTFDRYAMGSYRQAPAKEREMVAALSRSGTSTYYADSVKGRFTISRDNAKYTVYLQMNSLKPEDNAVYYCATRYTVYFPSRLSQYDYWGQGTQVTVSS | high polyreactivity
39 | QVQLGESGGGLVQAGGSLRLSCAASGYIFRVYAMGWYIQARGKERDFVAAITRGGRTNYADSVKGRFTISRDNAKNTVYLQMNSLKQEDTAVYYCAASFSAIRGGVRVTIDYYWGQGTQVTVSS | high polyreactivity
40 | QVQLVESGGGLVQAGGSLRLSCAASGRIFRDYAMGWYRLAPGKERELVAAITLSGTTTYYADSVKGRFTISRDNAKNTVYVQMNSLKPEDTAVYYCNAPRYRYRPHEGDYWGQGTQVTVSS | low polyreactivity
41 | QVQLVESGGGLVQAGGSLRLSCAASGFTFGWYAMGWYRQSPGKERELVAAISYSGGSTYYADSVKGRFTISRDNAKNTVYLQMNSLKPEDTAVYYCNAVLRLRVDSWGQGTQVTVSS | high polyreactivity
42 | QVQLVESGGGLVQAGGSLRLSCAASGNIFCINTMGWYRQAPGKERELVAAIDASDGSTYYADSVKGRFTISRDNAKNTVYLQMNSLKPEDTAVYYCATRSGYDSVYYFYTLWYYYWGQGTQVTVCS | low polyreactivity
43 | QVQLVESGGGLVQAGGSLRLSCAASGFTFDVYAMGWYRQAPGKERELVAAITGSDGSTYYADSVKGRFTISRDNAKNTVYLQMNSLKPEDTAVYYCNARSRSVVYKYDYWGQGTQVTVSS | low polyreactivity
